Publication PMC6439443

Molecular target: High-mannose IgG1 antibody (human)
Test: SPR

For “EndoS2 E186L (catalytically inactive EndoS2 variant) (from UniProt T1WGN1 44-843) (enzyme)”, which Kd is on record?
Its Kd is > 100 µM.
